Molecular target: T1, CD2 항원 (Jurkat T 세포 / T 림프구 표면) (UniProt P06729 25-351, limits assumed)
T1 construct: whole, on cells; also called CD2-positive Jurkat T 세포
T1 sequence (looked up): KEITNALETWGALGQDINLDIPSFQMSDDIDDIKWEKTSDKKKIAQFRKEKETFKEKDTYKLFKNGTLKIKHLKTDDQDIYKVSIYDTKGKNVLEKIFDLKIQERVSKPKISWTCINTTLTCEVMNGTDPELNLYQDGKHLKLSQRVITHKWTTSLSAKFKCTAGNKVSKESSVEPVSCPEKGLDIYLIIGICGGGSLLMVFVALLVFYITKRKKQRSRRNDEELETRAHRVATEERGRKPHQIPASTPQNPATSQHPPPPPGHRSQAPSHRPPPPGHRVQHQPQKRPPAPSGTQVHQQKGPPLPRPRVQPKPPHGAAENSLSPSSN
Test: cell-based ELISA on Jurkat T cells, FcR blocker, anti-6X HIS tag-HRP detection

B1: anti-CD20 scFv-LFA3-1 (other)
chain: FSQQIYGTWKGDVTFHVPSNVPLKEVLWKKQKDKVAELENSEFRAFSDFKGRVYLDTVSGSLTINSLQSEDFGEYEMESPNITDTMKFFLYVLESLPSPTEFGGGGSGGSGSGGGQVQLQQPGAELVKPGASVKMSCKASGYTFTSYNMHWVKQTPGRGLEWIGAIYPGNGDTSYNQKFKGKATLTADKSSSTAYMQLSSLTSEDSAVYYCARSTYYGGDWYFNVWGAGTTVTVSAGGGGSGGGGSGGGGSQIVLSQSPAILSASPGEKVTMTCRASSSVSYIHWFQQKPGSSPKPWIYATSNLASGVPVRFSGSGSGTSYSLTISRVEAEDAATYYCQQWTSNPPTFGGGTKLEIK
B1: binds.
